Test results from patent publication US20230118024A1 (Chugai, published 2023).

How the values were obtained:
Assay in all cases: FACS
[1] = target: T1, HLA-DQ2.5/secalin 1 peptide complex on Ba/F3 cells (human; rye)
T1 construct: also called Ba/F3-HLA-DQ2.5/secalin 1 peptide

[2] = target: T2, HLA-DQ2.5/CLIP peptide complex on Ba/F3 cells (human)
T2 construct: also called Ba/F3-HLA-DQ2.5/CLIP peptide

[3] = target: T3, HLA-DQ2.5/secalin 2 peptide complex on Ba/F3 cells (human; rye)
T3 construct: also called Ba/F3-HLA-DQ2.5/secalin 2 peptide

[4] = target: T4, HLA-DQ2.5/33mer gliadin peptide complex on Ba/F3 cells (human; wheat)
T4 construct: also called Ba/F3-HLA-DQ2.5/33mer gliadin peptide; HLA-DQ2.5/gliadin peptide complex

[5] = target: T5, HLA-DQ2.5/alpha 1b gliadin peptide complex on Ba/F3 cells (human; wheat)
T5 construct: also called Ba/F3-HLA-DQ2.5/alpha 1b gliadin peptide

[6] = target: T6, HLA-DQ2.5/omega 1 gliadin peptide complex on Ba/F3 cells (human; wheat)
T6 construct: also called Ba/F3-HLA-DQ2.5/omega 1 gliadin peptide

[7] = target: T7, HLA-DQ2.5/alpha 2 gliadin peptide complex on Ba/F3 cells (human; wheat)
T7 construct: also called Ba/F3-HLA-DQ2.5/alpha 2 gliadin peptide

[8] = target: T8, HLA-DQ2.5/alpha 1 gliadin peptide complex on Ba/F3 cells (human; wheat)
T8 construct: also called Ba/F3-HLA-DQ2.5/alpha 1 gliadin peptide

[9] = target: T9, HLA-DQ2.5/omega 2 gliadin peptide complex on Ba/F3 cells (human; wheat)
T9 construct: also called Ba/F3-HLA-DQ2.5/omega 2 gliadin peptide

| Binder | FIG. 30 FACS value (IC17=0, DQN0139bb=100) [1] | FIG. 30 FACS value (IC17=0, DQN0139bb=100) [2] | FIG. 30 FACS value (IC17=0, DQN0139bb=100) [3] | FIG. 30 FACS value (IC17=0, DQN0139bb=100) [4] | FIG. 30 FACS value (IC17=0, DQN0139bb=100) [5] | FIG. 30 FACS value (IC17=0, DQN0139bb=100) [6] | FIG. 30 FACS value (IC17=0, DQN0139bb=100) [7] | FIG. 30 FACS value (IC17=0, DQN0139bb=100) [8] | FIG. 30 FACS value (IC17=0, DQN0139bb=100) [9] |
| --- | --- | --- | --- | --- | --- | --- | --- | --- | --- |
| DQN0223hh (antibody, human IgG1, kappa, V domains shown, also called DQN0223Lh) VH: QQQLEESGGGLVKPGGTLTLTCKASRIDFSTYYYICWVRQSPWKGLEWIACIYSGDGYTYYPSWAKGRFSISKTSSTTVTLQVTSLTAADTATYFCARSYGGSSASAYFTLWGPGTQVTVSS VL: AVVLTQTASPVSAPVGGTVTIKCQASQSIGSNLGWYQQKPGQPPKLLIYGASALASGVPSRFKGSGSGTQFTLTINDLECADAATYYCQGYYYSSSAEWHSFGGGTKVEIKR | 47.6 | 60.2 | 48.4 | 59.5 | 36 | 46 | 46.8 | 27.9 | 59 |
| DQN0235ee (antibody, human IgG1, kappa, V domains shown, also called DQN0235He; DQN0235Le) VH: QQQLEESGGGLVKPGGTLTLTCKAGIDFSTYYYMCWVRQAPGKRPEWIACIFDGDGSTYYASWVNGRFTISKASSTTVTLRMTSLTAADTATYFCARSAGGSSSFGYFNLWGPGTLVTVSS VL: AYDMTQTPSSVSAAVGGTVTIKCQASQSISSSYLAWYHQKPGQSPKLLIYSASTLASGVPSRFKGSGSGTEFTLTISDLACADAATYYCQSYYYFSSNAWHTFGGGTKVEIKR | 73.4 | 82 | 71.1 | 70.1 |  | 75.2 | 81.3 | 52.3 | 78.8 |
| DQN0303hh (antibody, human IgG1, kappa, V domains shown, also called DQN0303Lh) VH: QQHLEESGGGLVKPGGTLTLTCTASGIDFSSYYYMCWVRQAPGKGLEWIACIYTGDGSTYYASWVNGRFTISRSTSLNTVTLQLNGLAAADTATYFCARSYGASSAIGYFNLWGPGTLVTVSS VL: DVVMTQTPSSKSAAVGGTVTIKCQASQNIYSNLAWYQQKPGQRPKLLIYEASTLASGVPSRFRGSGSGTEFTLTISDLECDDAATYYCQNYYYTSSNDFYTFGGGTKVEIKR | 64.5 | 80 | 59.4 | 72.8 | 41.5 | 56.2 | 62.6 | 51.4 | 91.7 |
| DQN0333hh (antibody, human IgG1, kappa, V domains shown, also called DQN0333Lh) VH: QSVEESGGRLVMPGGSLTLTCTASGFSLSSYYMNWVRQAPGKGLEWIGVIYSTDITDYATWATGRFTISKTSTTVDLKMTSLTAADTATYFCARELSPTTSGYIAYLWGPGTLVTVSS VL: AYDMTQTPASVEVAVGGTVTIKCQASQSISSYLAWYQQKPGQPPKLLIYSASTLASGVPSRFKGSGSGTQFTLTVIDVQCDDAATYYCQQTYSGKNVINTFGGGTKVEIKR | 110 | 116 | 106 | 106 | 108 | 106 | 118 |  | 128 |
